Experimental findings from PMC5825201 (mAbs, 2018) are described below.

In this test the target is endogenous human tissue factor on MDA-MB-231 breast cancer cells (Homo sapiens (MDA-MB-231 cells), UniProt P13726). The experiment in a line: flow cytometry on cells.
Chain of endogenous human tissue factor on MDA-MB-231 breast cancer cells (P13726 33-295): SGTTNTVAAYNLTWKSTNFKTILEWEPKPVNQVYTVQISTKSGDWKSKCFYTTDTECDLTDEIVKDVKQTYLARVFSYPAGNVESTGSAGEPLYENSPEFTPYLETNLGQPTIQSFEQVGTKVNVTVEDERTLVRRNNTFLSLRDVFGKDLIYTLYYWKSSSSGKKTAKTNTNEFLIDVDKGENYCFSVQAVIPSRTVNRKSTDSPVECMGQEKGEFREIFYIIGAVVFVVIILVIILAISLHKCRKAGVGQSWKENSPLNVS

B1: chimeric mouse/human version of 10H10 mAb (antibody, V domains shown)
VH: QVHLQQSGAELMKPGASVKISCKASGYTFITYWIEWVKQRPGHGLEWIGDILPGSGSTNYNENFKGKATFTADSSSNTAYMQLSSLTSEDSAVYYCARSGYYGNSGFAYWGQGTLVTVSA
VL: DIVMTQSPSSLTVTAGEKVTMSCKSSQSLLSSGNQKNYLTWYQQIPGQPPKLLIYWASTRESGVPDRFTGSGSGTDFTLTINSVQAEDLAVYYCQNDYTYPLTFGAGTKLELK
For B1, the “cell binding (% to 10H10)” value stood at 100%.
